Assay results published in patent publication US11407825B2, “NaPi2b-targeted polymer antibody-drug conjugates and methods of use thereof” (Mersana Therapeutics, Inc., priority 2018, dated 2022).

System: NaPi2b expressing tumors
Experiment: Phase 1b study of XMT-1536: tumor response per RECIST version 1.1
Format: in vivo, human
Conditions: for decrease in diameter of target lesions: DL4A (20 mg/m^2)
Text: The study presented herein is an open label, multi-center Phase 1b study of XMT-1536 administered as an intravenous infusion once every three or four weeks. The dose escalation (DES) part of the study will establish the maximum tolerated dose (MTD) or recommended Phase 2 dose (RP2D) for XMT-1536 in patients with a number of tumor types likely to express NaPi2b, with a focus on patients with platinum-resistant ovarian cancer and non-squamous non-small cell lung cancer (NSCLC). […] The RP2D may differ from the MTD and may take into account tolerability, pharmacokinetic and pharmacodynamic measures, and efficacy of XMT-1536 based on RECIST 1.1. After the first cycle, patients may continue to receive XMT-1536 until disease progression provided the drug is well-tolerated and patients continue to derive clinical benefit in the opinion of the Investigator. The DES segment of the study utilized an accelerated titration design. The first 3-week cycle of treatment constitutes the dose limiting toxicity (DLT) evaluation period. For the first two dose levels, a minimum of 1 patient was treated at each dose level. If this patient experiences a treatment-emergent adverse event of Grade 2 or higher, 2 additional patients will be added at this dose level, and the study will subsequently follow a 3+3 design, as described below. […] Starting with Dose Level 3, the study will follow a standard 3+3 design, with 3 patients enrolled initially at each dose level. […] However, in the event of 1 DLT, 3 additional patients will be enrolled at the same dose level. Any dose level with 2 or more DLTs will be considered to exceed the MTD and subsequent patients will be enrolled at lower dose level(s). After the first cycle, patients may continue to receive XMT-1536 until disease progression if the drug is well-tolerated and patients continue to derive clinical benefit in the opinion of the Investigator.
All adverse events will be graded according to the National Cancer Institute (NCI) Common Terminology Criteria version (CTCAE v4.03). The observation period for DLTs is 56 days, between Day 1 through end of Cycle 2 which includes the pre-dose assessments before receiving the Cycle 3 dose. In general, adverse events Grade ≥3 are DLTs with modifications for the following criteria: neutropenia hematologic toxicities, gastrointestinal toxicities, hepatic toxicities, and electrolyte imbalances. XMT-1536-related toxicity that delays initiation of Cycle 3 by more than 2 weeks, hospitalization to treat an infusion-related reaction, and any toxicity that prompts modification of the dose to be administered in Cycle 3 are also DLTs. Blood sampling will be performed to determine plasma PK parameters of XMT-1536, its release product auristatin F-HPA, and select metabolites. Testing for anti-drug antibodies (ADA) and neutralizing antibodies (nAb) will be performed. Tumor responses will be Investigator-assessed using Response Evaluation Criteria in Solid Tumors (RECIST), version 1.1, at the end of Cycle 2 and every 2 cycles thereafter.
In both segments of the study assessments with computerized tomography (CT) scans and RECIST version 1.1 criteria are performed at the end of Cycle 2 and at the end of every even-numbered cycle thereafter. Patients are continuously evaluated for adverse events, the use of concomitant medications, and the occurrence of infusion reactions in any cycle. Pharmacokinetic profiles of XMT-1536 and select release products/metabolites and the development of anti-drug antibodies are evaluated. RECIST version 1.1, is used to measure tumor response. The objective response rate (ORR—rate of complete response [CR] and partial response [PR]) and disease control rate (DCR—rate of CR, PR, and stable disease [SD]) will be measured for each cohort. Response duration, progression-free survival (PFS) and overall survival (OS) is estimated.
The primary analysis of efficacy is performed using both DES and EXP data. […]

[1] = All NSCLC, N 3, RECIST version 1.1
[2] = All Ovarian Cancer (OC), N 19, RECIST version 1.1
[3] = NSCLC ≥ 20 mg/m^2, N 2, RECIST version 1.1
[4] = OC + NSCLC ≥ 20 mg/m^2, N 18, RECIST version 1.1
[5] = OC ≥ 20 mg/m^2, N 16, RECIST version 1.1
[6] = OC ≥ 30 mg/m^2, N 7, RECIST version 1.1
[7] = ovarian cancer and lung adenocarcinoma, ≥20 mg/m^2 (N=18)

B1: XMT-1536: about 10-15 molecules of auristatin F-hydroxypropyl amide conjugated to a cysteine moiety of NaPi2b monoclonal antibody XMT-1535 via a PHF scaffold (conjugate, chains of the INN, looked up)
VH: QVQLVQSGAEVVKPGASVKMSCKASGYTFTGYNIHWVKQAPGQGLEWIGAIYPGNGDTSYKQKFRGRATLTADTSTSTVYMELSSLRSEDSAVYYCARGETARATFAYWGQGTLVTVSS
VL: DIQMTQSPSSLSASVGDRVTITCSASQDIGNFLNWYQQKPGKTVKVLIYYTSSLYSGVPSRFSGSGSGTDYTLTISSLQPEDFATYYCQQYSKLPLTFGQGTKLELK
modifications: auristatin F-hydroxypropyl amide via PHF scaffold
notes: about 10-15 molecules of auristatin F-hydroxypropyl amide conjugated to a cysteine moiety of NaPi2b monoclonal antibody XMT-1535 via a PHF scaffold
DCR (PR + SD) (All NSCLC, N 3): 67%
DCR (PR + SD), patients (All NSCLC, N 3): 2
PD [1]: 33%
PD, patients [1]: 1
PR [1]: 0 (0%)
PR, patients [1]: 0 (0%)
DCR (PR + SD) (All Ovarian Cancer (OC), N 19): 58%
DCR (PR + SD), patients (All Ovarian Cancer (OC), N 19): 11
PD [2]: 42%
PD, patients [2]: 8
PR [2]: 16%
PR, patients [2]: 3
patients who reached partial remission (DL 4A): one
DCR (PR + SD) (NSCLC ≥ 20 mg/m^2, N 2): 100%
DCR (PR + SD), patients (NSCLC ≥ 20 mg/m^2, N 2): 2
PD [3]: 0 (0%)
PD, patients [3]: 0 (0%)
PR [3]: 0 (0%)
PR, patients [3]: 0 (0%)
DCR (PR + SD) (OC + NSCLC ≥ 20 mg/m^2, N 18): 61%
DCR (PR + SD), patients (OC + NSCLC ≥ 20 mg/m^2, N 18): 11
PD [4]: 39%
PD, patients [4]: 7
PR [4]: 17%
PR, patients [4]: 3
DCR (PR + SD) (OC ≥ 20 mg/m^2, N 16): 57%
DCR (PR + SD), patients (OC ≥ 20 mg/m^2, N 16): 9
PD [5]: 43%
PD, patients [5]: 7
PR [5]: 19%
PR, patients [5]: 3
DCR (PR + SD) (OC ≥ 30 mg/m^2, N 7): 71%
DCR (PR + SD), patients (OC ≥ 30 mg/m^2, N 7): 5
PD [6]: 28%
PD, patients [6]: 2
PR [6]: 28%
PR, patients [6]: 2
dose response of best response by RECIST (waterfall plot) (change in tumor size by dose level): there appears to be a dose response
anti-tumor activity (conclusions): early signs of anti-tumor activity
objective responses (doses of 20 mg/m^2 and higher): Objective responses have been observed
clinical activity based on objective responses and duration of treatment (doses of 20 mg/m^2 or higher): clinical activity was observed
DCR [7]: 61%
ORR [7]: 17%
PRs [7]: 17%
PRs, patients [7]: 3
SDs [7]: 44%
SDs, patients [7]: 8
disease control rate (patients treated with at least 12 mg/m^2, every three weeks, RECIST version 1.1): 67%
decrease in diameter of target lesions (person, platinum-resistant high-grade serous ovarian cancer, end of Cycle 2): 40%
decrease in diameter of target lesions (same patient, end of Cycle 3): 75%
patients who reached nearly partial remission (starting at DL 5): two
patients with stable disease (SD) as best response (ten patients with post-treatment restaging scans, as of February 2019): 9
outcome by dose level (swimmers plot) (time on study by dose level and tumor type): At lower doses the majority of patients came off study because of progressive disease, but starting at DL4, most patients had stable disease
